From patent publication US20250312499A1, “KISSPEPTIN RECEPTOR (KISS1R) TARGETED THERAPEUTICS AND USES THEREOF” (priority 2024, published 2025) come the findings set out here.

Sequences and labels used below:
B1: Compound 19 (peptide)
peptide: {DOTA}-[dK][dN]F[azaGly]L[X2]W-NH2
SMILES: Cc1ccc(CNCC(=O)N2CCC(NC(=O)[C@H](CC(C)C)NC(=O)NNC(=O)[C@H](Cc3ccccc3)NC(=O)[C@@H](CC(N)=O)NC(=O)[C@@H](CCCCN)NC(=O)CN3CCN(CC(=O)O)CCN(CC(=O)O)CCN(CC(=O)O)CC3)(C(=O)N[C@@H](Cc3c[nH]c4ccccc34)C(N)=O)CC2)cc1F
B2: Compound 121 (peptide)
peptide: {DOTA}-[dY][Phe(4-I)]NT[Phe(4-I)][azaGly]L[Api(1-amidino)][4Pal]-NH2
SMILES: CC(C)C[C@H](NC(=O)NNC(=O)[C@H](Cc1ccc(I)cc1)NC(=O)[C@@H](NC(=O)[C@H](CC(N)=O)NC(=O)[C@H](Cc1ccc(I)cc1)NC(=O)[C@@H](Cc1ccc(O)cc1)NC(=O)CN1CCN(CC(=O)O)CCN(CC(=O)O)CCN(CC(=O)O)CC1)[C@@H](C)O)C(=O)NC1(C(=O)N[C@@H](Cc2ccncc2)C(N)=O)CCN(C(=N)N)CC1
B3: Compound 5 (peptide)
peptide: {DOTA-Ahx}-F[azaGly]L[Api(1-amidino)]W-NH2
SMILES: CC(C)C[C@H](NC(=O)NNC(=O)[C@H](Cc1ccccc1)NC(=O)CCCCCNC(=O)CN1CCN(CC(=O)O)CCN(CC(=O)O)CCN(CC(=O)O)CC1)C(=O)NC1(C(=O)N[C@@H](Cc2c[nH]c3ccccc23)C(N)=O)CCN(C(=N)N)CC1
B4: Compound 21 (peptide)
peptide: {DOTA}-[dN]F[azaGly]L[X2]W-NH2
SMILES: Cc1ccc(CNCC(=O)N2CCC(NC(=O)[C@H](CC(C)C)NC(=O)NNC(=O)[C@H](Cc3ccccc3)NC(=O)[C@@H](CC(N)=O)NC(=O)CN3CCN(CC(=O)O)CCN(CC(=O)O)CCN(CC(=O)O)CC3)(C(=O)N[C@@H](Cc3c[nH]c4ccccc34)C(N)=O)CC2)cc1F
B5: Compound 123 (peptide)
peptide: {DOTA}-[dY][Ala(9-anthryl)]NTF[azaGly][Nle][Api(1-amidino)][4Pal]-NH2
SMILES: CCCC[C@H](NC(=O)NNC(=O)[C@H](Cc1ccccc1)NC(=O)[C@@H](NC(=O)[C@H](CC(N)=O)NC(=O)[C@H](Cc1c2ccccc2cc2ccccc12)NC(=O)[C@@H](Cc1ccc(O)cc1)NC(=O)CN1CCN(CC(=O)O)CCN(CC(=O)O)CCN(CC(=O)O)CC1)[C@@H](C)O)C(=O)NC1(C(=O)N[C@@H](Cc2ccncc2)C(N)=O)CCN(C(=N)N)CC1
B6: Compound 370 (peptide)
peptide: {DOTA-Ahx}-[dY][d2Nal]NTF[azaGly]L[4‑amino‑1‑((pyridin-4-ylmethyl)glycyl)piperidine‑4‑carboxylic acid][dW]-NH2
B7: Compound 319 (peptide)
peptide: {DOTA-Ahx}-[dY][d2Nal]NTF[azaGly]L[X7][dW]-NH2
SMILES: CNC(=N)N1CCC(NC(=O)[C@H](CC(C)C)NC(=O)NNC(=O)[C@H](Cc2ccccc2)NC(=O)[C@@H](NC(=O)[C@H](CC(N)=O)NC(=O)[C@@H](Cc2ccc3ccccc3c2)NC(=O)[C@@H](Cc2ccc(O)cc2)NC(=O)CCCCCNC(=O)CN2CCN(CC(=O)O)CCN(CC(=O)O)CCN(CC(=O)O)CC2)[C@@H](C)O)(C(=O)N[C@H](Cc2c[nH]c3ccccc23)C(N)=O)CC1
B8: Compound 375 (peptide)
peptide: {DOTA-Ahx}-[dY][d2Nal]NTF[azaGly]L[4‑amino‑1‑(((tetrahydro-2H-thiopyran-4-yl)methyl)glycyl)piperidine‑4‑carboxylic acid][dW]-NH2
B9: Compound 15 (peptide)
peptide: {DOTA}-[βAla][dN][dN][dE][dE][dN]F[azaGly]L[X2]W-NH2
SMILES: Cc1ccc(CNCC(=O)N2CCC(NC(=O)[C@H](CC(C)C)NC(=O)NNC(=O)[C@H](Cc3ccccc3)NC(=O)[C@@H](CC(N)=O)NC(=O)[C@@H](CCC(=O)O)NC(=O)[C@@H](CCC(=O)O)NC(=O)[C@@H](CC(N)=O)NC(=O)[C@@H](CC(N)=O)NC(=O)CCNC(=O)CN3CCN(CC(=O)O)CCN(CC(=O)O)CCN(CC(=O)O)CC3)(C(=O)N[C@@H](Cc3c[nH]c4ccccc34)C(N)=O)CC2)cc1F
B10: Compound 252 (peptide)
peptide: {HO(CH2CH2O)2CH2CH2CO}-K(DOTA)ETF[azaGly]L[X2][4Pal]-NH2
SMILES: Cc1ccc(CNCC(=O)N2CCC(NC(=O)[C@H](CC(C)C)NC(=O)NNC(=O)[C@H](Cc3ccccc3)NC(=O)[C@@H](NC(=O)[C@H](CCC(=O)O)NC(=O)[C@H](CCCCNC(=O)CN3CCN(CC(=O)O)CCN(CC(=O)O)CCN(CC(=O)O)CC3)NC(=O)CCOCCOCCO)[C@@H](C)O)(C(=O)N[C@@H](Cc3ccncc3)C(N)=O)CC2)cc1F
B11: Compound 189 (peptide)
peptide: {DOTA-Ahx}-F[azaGly]L[X7]W-NH2
SMILES: CNC(=N)N1CCC(NC(=O)[C@H](CC(C)C)NC(=O)NNC(=O)[C@H](Cc2ccccc2)NC(=O)CCCCCNC(=O)CN2CCN(CC(=O)O)CCN(CC(=O)O)CCN(CC(=O)O)CC2)(C(=O)N[C@@H](Cc2c[nH]c3ccccc23)C(N)=O)CC1
B12: Compound 251 (peptide)
peptide: {HO(CH2CH2O)2CH2CH2CO}-K(DOTA)TF[azaGly]L[X2][4Pal]-NH2
SMILES: Cc1ccc(CNCC(=O)N2CCC(NC(=O)[C@H](CC(C)C)NC(=O)NNC(=O)[C@H](Cc3ccccc3)NC(=O)[C@@H](NC(=O)[C@H](CCCCNC(=O)CN3CCN(CC(=O)O)CCN(CC(=O)O)CCN(CC(=O)O)CC3)NC(=O)CCOCCOCCO)[C@@H](C)O)(C(=O)N[C@@H](Cc3ccncc3)C(N)=O)CC2)cc1F
B13: Compound 199 (peptide)
peptide: {DOTA-Ahx}-TNRNFL[Api(1-amidino)]F-NH2
SMILES: CC(C)C[C@H](NC(=O)[C@H](Cc1ccccc1)NC(=O)[C@H](CC(N)=O)NC(=O)[C@H](CCCNC(=N)N)NC(=O)[C@H](CC(N)=O)NC(=O)[C@@H](NC(=O)CCCCCNC(=O)CN1CCN(CC(=O)O)CCN(CC(=O)O)CCN(CC(=O)O)CC1)[C@@H](C)O)C(=O)NC1(C(=O)N[C@@H](Cc2ccccc2)C(N)=O)CCN(C(=N)N)CC1
B14: Compound 16 (peptide)
peptide: {DOTA}-[βAla][dN][dN][dK][dE][dN]F[azaGly]L[X2]W-NH2
SMILES: Cc1ccc(CNCC(=O)N2CCC(NC(=O)[C@H](CC(C)C)NC(=O)NNC(=O)[C@H](Cc3ccccc3)NC(=O)[C@@H](CC(N)=O)NC(=O)[C@@H](CCC(=O)O)NC(=O)[C@@H](CCCCN)NC(=O)[C@@H](CC(N)=O)NC(=O)[C@@H](CC(N)=O)NC(=O)CCNC(=O)CN3CCN(CC(=O)O)CCN(CC(=O)O)CCN(CC(=O)O)CC3)(C(=O)N[C@@H](Cc3c[nH]c4ccccc34)C(N)=O)CC2)cc1F
B15: Compound 49 (peptide)
peptide: {DOTA}-F[azaGly]L[X2]W-NH2
SMILES: Cc1ccc(CNCC(=O)N2CCC(NC(=O)[C@H](CC(C)C)NC(=O)NNC(=O)[C@H](Cc3ccccc3)NC(=O)CN3CCN(CC(=O)O)CCN(CC(=O)O)CCN(CC(=O)O)CC3)(C(=O)N[C@@H](Cc3c[nH]c4ccccc34)C(N)=O)CC2)cc1F
B16: Compound 248 (peptide)
peptide: {DOTA-APM}-F[azaGly]L[X2]H-NH2
modifications: reading uncertain
B17: Compound 239 (peptide)
peptide: ENTF[azaGly][dL][Apc(4-OMe)]F
B18: Compound 3 (peptide)
peptide: {DOTA-Ahx}-FGL[Api(1-amidino)]W-NH2
SMILES: CC(C)C[C@H](NC(=O)CNC(=O)[C@H](Cc1ccccc1)NC(=O)CCCCCNC(=O)CN1CCN(CC(=O)O)CCN(CC(=O)O)CCN(CC(=O)O)CC1)C(=O)NC1(C(=O)N[C@@H](Cc2c[nH]c3ccccc23)C(N)=O)CCN(C(=N)N)CC1

The term Ki denotes a dissociation constant, usually derived from enzyme kinetics or from competition with a known ligand. Low values mean a stronger hold on the target, high ones a looser hold on the target.

Numbered stars: 1 amine (or outer) side, 2 acyl side, 3 side chain; on linkers, the order of the positions; unused ones are H or OH. Square brackets hold non-standard residues; d marks the D form. Ends that are not written are not given here. * marks the point of attachment. X2 = 4‑amino‑1‑((3-fluoro-4-methylbenzyl)glycyl)piperidine‑4‑carboxylic acid, Cc1ccc(CN(CC(=O)N2CCC(N[*:1])(C(=O)[*:2])CC2)[*:3])cc1F; X7 = 4‑amino‑1‑(N-methylcarbamimidoyl)piperidine‑4‑carboxylic acid, CNC(=N)N1CCC(N[*:1])(C(=O)[*:2])CC1; Apc(4-OMe) = 4-aminopiperidine-4-carboxylic acid residue N1-acylated by a methoxy-bearing benzylglycyl; DOTA = O=C(O)CN1CCN(CC(=O)O)CCN(CC(=O)*)CCN(CC(=O)O)CC1; Ala(9-anthryl) = N[C@@H](Cc1c2ccccc2cc2ccccc12)C(=O)O; Api(1-amidino) = N=C(N)N1CCC(N)(C(=O)O)CC1; HO(CH2CH2O)2CH2CH2CO = O=C(CCOCCOCCO)*; Phe(4-I) = N[C@@H](Cc1ccc(I)cc1)C(=O)O; d2Nal = N[C@H](Cc1ccc2ccccc2c1)C(=O)O; 4Pal = N[C@@H](Cc1ccncc1)C(=O)O; Nle = CCCC[C@H](N)C(=O)O; APM = not defined here; Ahx = NCCCCCC(=O)O; azaGly = NNC(=O)O; βAla = NCCC(=O)O

The first assay addresses human kisspeptin receptor (KISS1R) (human), Q969F8. The assay can be described thus: radioligand competition, hKISS1R membranes; legend: B is 10-100 nM. On the technique in general: In a radioligand displacement assay an active substance lowers the binding of a labelled ligand.
Turning to B1, the Ki lay within 10 to 100 nM. As for B2, the Ki lay within 10 to 100 nM. B3 gave a Ki of 10 to 100 nM. In turn, B4 showed a Ki of 10 to 100 nM.

In the next assay the target is human kisspeptin receptor (KISS1R) (human) (UniProt Q969F8). The assay is described as follows: radioligand competition, hKISS1R membranes; legend: C is >100 nM.
human kisspeptin receptor (KISS1R) (human), sequence (Q969F8 whole entry): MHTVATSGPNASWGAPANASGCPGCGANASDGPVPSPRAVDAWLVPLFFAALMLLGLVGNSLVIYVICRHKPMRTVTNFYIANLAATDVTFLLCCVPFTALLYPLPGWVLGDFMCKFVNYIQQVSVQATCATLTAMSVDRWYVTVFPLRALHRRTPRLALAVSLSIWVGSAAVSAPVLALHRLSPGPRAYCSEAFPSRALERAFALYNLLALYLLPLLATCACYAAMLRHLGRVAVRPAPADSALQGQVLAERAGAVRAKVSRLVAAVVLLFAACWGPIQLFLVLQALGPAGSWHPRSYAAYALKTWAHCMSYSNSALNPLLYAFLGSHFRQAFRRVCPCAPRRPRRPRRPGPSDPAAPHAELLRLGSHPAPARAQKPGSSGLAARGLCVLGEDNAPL
As to B5, the Ki is above 100 nM.

B6: the Ki is above 100 nM. For B7, the Ki is above 100 nM. Molecule B8 displayed a Ki above 100 nM.

The target in a further assay is human kisspeptin receptor (KISS1R) (human), Q969F8. The description is as above.
human kisspeptin receptor (KISS1R) (human), Q969F8, sequence (Q969F8 whole entry): as above
For the molecule B9, the Ki is above 100 nM.

On to B10, for which the Ki was above 100 nM. Molecule B11 gave a Ki above 100 nM. For the molecule B12, the Ki was above 100 nM.

In turn, B13 had a Ki above 100 nM.

With B14, the Ki is above 100 nM. The molecule B15 displayed a Ki above 100 nM. Same read-out and setting: the value for B16 was above 100 nM. Regarding B17, the Ki was above 100 nM.

Turning to B18, the Ki is above 100 nM.
